The source of these data is US10428140B2, “Anti-EphA4 antibody” (EISAI R&D MANAGEMENT CO., LTD., priority 2015, dated 2019).

One test has as its target T1, human EphA3 (Homo sapiens, UniProt P29320).
T1 construct: a protein of the extracellular region of each human Eph receptor fused with the SEAP protein and the His tag; made in house; host or cells: Expi293F cells (culture supernatant)
T1 sequence (P29320 21-541 limits assumed): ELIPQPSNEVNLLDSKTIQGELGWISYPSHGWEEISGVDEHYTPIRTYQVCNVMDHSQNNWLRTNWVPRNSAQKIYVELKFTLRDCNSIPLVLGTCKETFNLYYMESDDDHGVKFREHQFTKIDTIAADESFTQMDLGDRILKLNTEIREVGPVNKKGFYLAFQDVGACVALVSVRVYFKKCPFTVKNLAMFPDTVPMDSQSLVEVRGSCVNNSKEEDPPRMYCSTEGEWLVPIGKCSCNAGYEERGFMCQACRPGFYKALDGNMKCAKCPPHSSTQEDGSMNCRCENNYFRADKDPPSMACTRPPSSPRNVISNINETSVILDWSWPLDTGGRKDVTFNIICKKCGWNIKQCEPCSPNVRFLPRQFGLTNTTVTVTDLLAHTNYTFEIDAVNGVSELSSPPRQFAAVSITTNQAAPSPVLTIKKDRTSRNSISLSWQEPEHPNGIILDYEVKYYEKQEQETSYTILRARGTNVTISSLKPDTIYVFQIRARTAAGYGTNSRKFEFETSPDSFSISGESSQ
Kind of test: Selectivity ELISA of humanized antibodies for human Eph receptor. To be noted: coated protein 1 nM. It counts as binding. A digest of the protocol: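 His-tagged SEAP fusions of each human Eph receptor extracellular region, from Expi293F supernatants, were captured at 1 nM on anti-His-coated wells. Humanized antibody was bound 1 h at room temperature, then detected with HRP […] IgG. TMB development was acid-stopped and read at 450 nm.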
A general note: ELISA stands for enzyme-linked immunosorbent assay.

Test [1] concerns the target T2, human EphA4 (binding to human Ephrin A5) (Homo sapiens, UniProt P54764).
T2 construct: made in house; not restated for the human SEAP-His protein
Kind of test: Human EphA4-human ligand binding inhibition ELISA of humanized antibodies (biotinylated Ephrin A5-Fc). To be noted: biotinylated human Ephrin A5-Fc 0.7 nM. A digest of the protocol: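 Wells coated with anti-alkaline phosphatase antibody captured human EphA4 extracellular region-SEAP-His at 10 nM. Biotinylated human Ephrin A5-Fc (0.7 nM) and serially diluted humanized antibody (0-3000 nM) were added together for 1 h at room temperature. Bound ligand was detected with HRP-streptavidin and TMBZ at A450.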

T2 sequence (P54764 20-547): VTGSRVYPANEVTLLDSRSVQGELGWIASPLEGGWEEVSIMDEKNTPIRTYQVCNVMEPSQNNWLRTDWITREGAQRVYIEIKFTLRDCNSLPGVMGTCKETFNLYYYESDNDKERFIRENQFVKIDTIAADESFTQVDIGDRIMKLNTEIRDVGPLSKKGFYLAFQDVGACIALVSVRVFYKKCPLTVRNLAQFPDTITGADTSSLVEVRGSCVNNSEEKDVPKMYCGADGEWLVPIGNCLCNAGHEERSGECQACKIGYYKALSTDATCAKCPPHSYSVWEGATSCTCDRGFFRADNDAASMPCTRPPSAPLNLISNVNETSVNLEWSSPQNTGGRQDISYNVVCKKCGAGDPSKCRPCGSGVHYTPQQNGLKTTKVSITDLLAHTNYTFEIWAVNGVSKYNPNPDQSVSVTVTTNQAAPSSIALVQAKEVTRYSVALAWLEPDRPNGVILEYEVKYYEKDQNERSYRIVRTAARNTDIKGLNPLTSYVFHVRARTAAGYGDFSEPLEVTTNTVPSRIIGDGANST

B1: 75 (antibody)
VH: QVQLVQSGSELKKPGASVKVSCKASGYTFTDYSMHWVRQAPGQGLEWMGWINTETGEPTYAQGFTGRFVFSLDTSVSTAYLQISSLKAEDTAVYYCARIPLYYYGSRYWYFDVWGQGTTVTVSS
VL: DIQMTQSPSSLSASVGDRVTITCRASENIYRNLAWYQQKPGKAPKLLVYAATNLADGVPSRFSGSGSGTDYTLTISSLQPEDFATYYCQHFWGTPWTFGQGTKVEIK
chain: ASTKGPSVFPLAPSSKSTSGGTAALGCLVKDYFPEPVTVSWNSGALTSGVHTFPAVLQSSGLYSLSSVVTVPSSSLGTQTYICNVNHKPSNTKVDKRVEPKSCDKTHTCPPCPAPPAAAPSVFLFPPKPKDTLMISRTPEVTCVVVDVSHEDPEVQFNWYVDGVEVHNAKTKPREEQFNSTFRVVSVLTVVHQDWLNGKEYKCKVSNKGLPAPIEKTISKTKGQPREPQVYTLPPSREEMTKNQVSLTCLVKGFYPSDIAVEWESNGQPENNYKTTPPMLDSDGSFFLYSKLTVDKSRWQQGNVFSCSVMHEALHNHYTQKSLSLSPG
modifications: synthetic humanized antibody heavy chain variable region sequence; synthetic humanized antibody light chain variable region sequence; synthetic antibody constant region sequence
The term IC50 denotes the concentration that gives 50% inhibition. Lower therefore signals inhibition by little substance. Take B1: in the test with human EphA3, the “hEphA3-SEAP-: absorbance at 450 nm, percentage with respect to hEphA4-SEAP-His as 100%” value was 4.8%. The molecule also yielded a half-maximal inhibitory concentration (IC50) in test [1] of 2.9 nM.

B2: 136 (antibody, V domains shown)
VH: QVQLVQSGSELKKPGASVKVSCKASGYTFTDYSMHWVRQAPGQGLKWMGWINTETGEPTYADDFKGRFVFSLDTSVSTAYLQISSLKAEDTAVYYCARIPLYYYGSRYWYFDVWGQGTTVTVSS
VL: EIVMTQSPATLSVSPGERATLSCRASENIYRNLAWYQQKPGQSPRLLIYAATNLADGIPARFSGSGSGTEYTLTISSLQSEDFAVYYCQHFWGTPWTFGQGTKVEIK
modifications: synthetic humanized antibody heavy chain variable region sequence; synthetic humanized antibody light chain variable region sequence
As for B2, the “hEphA3-SEAP-: absorbance at 450 nm, percentage with respect to hEphA4-SEAP-His as 100%” value with human EphA3 turned out to be 5.2%. This molecule also yielded an IC50 in test [1] of 2.5 nM.

B3: 77 (antibody, V domains shown)
VH: QVQLVQSGSELKKPGASVKVSCKASGYTFTDYSMHWVRQAPGQGLEWMGWINTETGEPTYADDFKGRFVFSLDTSVSTAYLQISSLKAEDTAVYYCARIPLYYYGSRYWYFDVWGQGTTVTVSS
VL: DIQMTQSPSSLSASVGDRVTITCRASENIYRNLAWYQQKPGKAPKLLVYAATNLADGVPSRFSGSGSGTDYTLTISSLQPEDFATYYCQHFWGTPWTFGQGTKVEIK
modifications: synthetic humanized antibody heavy chain variable region sequence; synthetic humanized antibody light chain variable region sequence
In the case of B3, the “hEphA3-SEAP-: absorbance at 450 nm, percentage with respect to hEphA4-SEAP-His as 100%” value with human EphA3 is given as 4.5%. Further, the IC50 in test [1] amounted to 3.5 nM.

B4: 156 (antibody, V domains shown)
VH: QIQLVQSGSELKKPGASVKVSCKASGYTFTDYSMHWVRQAPGQGLKWMGWINTETGEPTYAQGFTGRFVFSLDTSVSTAYLQISSLKAEDTAVYYCARIPLYYYGSRYWYFDVWGQGTTVTVSS
VL: DIQMTQSPSSLSASVGDRVTITCRASENIYRNLAWYQQKPGKAPQLLLYAATNLADGVPSRFSGSGSGTDYTLTISSLQPEDFATYYCQHFWGTPWTFGQGTKVEIK
modifications: synthetic humanized antibody heavy chain variable region sequence; synthetic humanized antibody light chain variable region sequence
On to B4, for which the “hEphA3-SEAP-: absorbance at 450 nm, percentage with respect to hEphA4-SEAP-His as 100%” value with human EphA3 amounted to 5.7%. For the same molecule, the 50% inhibitory concentration (IC50) in test [1] was found to be 2.5 nM.

B5: 78 (antibody, V domains shown)
VH: QVQLVQSGSELKKPGASVKVSCKASGYTFTDYSMHWVRQAPGQGLKWMGWINTETGEPTYADDFKGRFVFSLDTSVSTAYLQISSLKAEDTAVYYCARIPLYYYGSRYWYFDVWGQGTTVTVSS
VL: DIQMTQSPSSLSASVGDRVTITCRASENIYRNLAWYQQKPGKAPKLLVYAATNLADGVPSRFSGSGSGTDYTLTISSLQPEDFATYYCQHFWGTPWTFGQGTKVEIK
modifications: synthetic humanized antibody heavy chain variable region sequence; synthetic humanized antibody light chain variable region sequence
As to B5, the “hEphA3-SEAP-: absorbance at 450 nm, percentage with respect to hEphA4-SEAP-His as 100%” value with human EphA3 came to 5.1%. In addition, the IC50 in test [1] came to 2.8 nM.

B6: 67 (antibody, V domains shown)
VH: QIQLVQSGSELKKPGASVKVSCKASGYTFTDYSMHWVRQAPGQGLKWMGWINTETGEPTYAQGFTGRFVFSLDTSVSTAYLQISSLKAEDTAVYYCARIPLYYYGSRYWYFDVWGQGTTVTVSS
VL: DIQMTQSPSSLSASVGDRVTITCRASENIYRNLAWYQQKPGKAPKLLVYAATNLADGVPSRFSGSGSGTDYTLTISSLQPEDFATYYCQHFWGTPWTFGQGTKVEIK
modifications: synthetic humanized antibody heavy chain variable region sequence; synthetic humanized antibody light chain variable region sequence
For the molecule B6, in the test with human EphA3, the “hEphA3-SEAP-: absorbance at 450 nm, percentage with respect to hEphA4-SEAP-His as 100%” value came to 4.8%. Further, the IC50 in test [1] stood at 4.4 nM.

B7: 76 (antibody, V domains shown)
VH: QVQLVQSGSELKKPGASVKVSCKASGYTFTDYSMHWVRQAPGQGLKWMGWINTETGEPTYAQGFTGRFVFSLDTSVSTAYLQISSLKAEDTAVYYCARIPLYYYGSRYWYFDVWGQGTTVTVSS
VL: DIQMTQSPSSLSASVGDRVTITCRASENIYRNLAWYQQKPGKAPKLLVYAATNLADGVPSRFSGSGSGTDYTLTISSLQPEDFATYYCQHFWGTPWTFGQGTKVEIK
modifications: synthetic humanized antibody heavy chain variable region sequence; synthetic humanized antibody light chain variable region sequence
With B7, the “hEphA3-SEAP-: absorbance at 450 nm, percentage with respect to hEphA4-SEAP-His as 100%” value with human EphA3 stood at 4.9%. This molecule returned a concentration for half-maximal inhibition (IC50) in test [1] of 2.9 nM.
